How the values were obtained:
[1] = test system: injured coronary artery segments; assay: Percutaneous transluminal coronary angioplasty (balloon injury) study
Excerpt: Porcine platelets and fibrinogen were labeled with ^111Indium and ^125Iodine respectively for infusion into pigs. […] Oral ASA was given to all pigs for at least three day prior to the coronary angioplasty procedure, and heparin (100 U/kg) was given at the time of the angioplasty. One to three days prior to the angioplasty an external jugular line was inserted to administer the labeled platelets and fibrin, CD39 or saline, and to facilitate blood draws. Labeled platelets and fibrinogen were given approximately 18 hours prior to balloon injury. Coronary arteries were injured using an oversize balloon. A coronary guide catheter was first advanced into the ascending aorta. An oversized balloon was then advanced into a coronary vessel and inflated at 6 to 8 atmospheres for a total of thirty seconds. The balloon was then deflated and withdrawn. The average ratio of balloon size to vessel size was 1.32 for the placebo group and 1.29 for the CD39 group.
Platelet aggregation and bleeding time were measured 30 minutes after administration. […] Moreover, no bleeding was noted during PTCA or after sheath removal and there was no significant difference in hematocrit or platelet counts between the groups.
After the radioactivity decayed, toluidine-blue stained injured coronary artery segments were examined histologically, in order to further characterize the extent of thrombus formation. A blinded observer qualitatively evaluated the degree of histologic injury in the coronary segments by assessing, on a scale of 1-4 with 4 being the most severe injury, the severity of medial and internal elastic lamina tear, medial separation, and hemorrhage. A composite injury score was obtained by totaling, the three individual scores. The medial injury scores for the placebo and CD39 groups were 2.5 and 2.2 respectively; medial separation scores for the placebo and CD39 groups were 2.0 and 1.6 respectively; the degree of hemorrhage for the placebo and CD39 groups were 2.3 and 2.5 respectively. The composite injury scores for the placebo and CD39 groups were […] and 6.2 respectively. These in vivo results correlate well with results, reported herein, obtained in vitro and ex vivo.

[2] = test system: murine platelets; assay: Ex vivo aggregation of murine platelets; format: in vivo, C57BL/6J mice; conditions: PRP 1 hour after soluble CD39 4 mg/kg or aspirin 5 mg/kg
Protocol: C57BL/6J mice (6-8 wk) were obtained from Jackson Laboratories (Bar Harbor, Me.). […] 80 μL of 3.8% trisodium citrate was added to each mL of blood. […] The PRP contained 400-700×10^3 platelets per μL. All experiments were completed within 2 hours of blood collection. PRP (200 μL) was preincubated, for 3 min. at 37° C., with 100 μL Tris-buffered saline buffer ([…], 5 mM glucose, pH 7.4) in an aggregometer cuvette (Lumiaggregometer; Chrono-Log, Havertown, Pa.), and the platelet agonists ADP, collagen, or sodium arachidonate were added at the final concentrations indicated.

[3] = design: species or system pigs; conditions: pig, in vivo
Protocol: Aspirin was administered orally on a daily basis. Placebo controls consisted of aspirin. Saline controls and solCD39 were administered as a single bolus. Time points were measured following this administration. Blood samples were obtained via an external jugular vein catheter. […] ADP-induced platelet aggregation was measured at specific time intervals following administration. The concentration of CD39 in serum as a function of time was measured using an ELISA assay. Distribution and clearance half-lives were determined using a biphasic curve fit.

[4] = Murine model of stroke (middle cerebral artery occlusion); format: in vivo, mice
Protocol: Anesthetized mice were maintained at 37±2° C. during and for 90 min following surgery. A midline neck incision was made and the right carotid artery exposed. Middle cerebral artery occlusion was accomplished by advancing a 13-mm heat-blunt tipped 6-0 nylon suture via an arteriotomy in the external carotid stump. The external carotid artery was cauterized to secure hemostasis, and arterial flow reestablished. […] Surgical staples were used for wound closure. […]

[5] = Mouse lung ischemia-reperfusion survival model; format: in vivo, C57BL/6 mice; conditions: 8 mg/kg i.v.
Protocol: C57BL/6 mice were anesthetized and ventilated, and their thoraces were opened to surgically expose both pulmonary hila. Either physiological saline or soluble CD39 (8 mg/kg) was administered intravenously, after which the left pulmonary hilum was cross-clamped for one hour. The cross-clamp was removed for three hours of reperfusion, and then a cross-clamp was applied to the right hilum for a thirty minute observation period. This latter maneuver effectively removed the normal lung from circulation, so that the mouse must survive on the function of the post-ischemic left lung. The results are shown, in the form of a Kaplan-Meier survival plot, in FIG. 23.

[6] = test system: platelets; assay: Platelet aggregation in human platelet-rich plasma; format: cell-based
Protocol: After obtaining informed consent from volunteers, blood was collected via plastic tubing using acid citrate-dextrose (38 mM citric acid; 75 mM sodium citrate; 135 mM glucose) as anticoagulant. Where indicated, volunteers had ingested 650 mg acetylsalicylic acid (ASA) 18 h prior to blood donation. […] The stock suspension of PRP was maintained at room temperature under 5% CO2-air. […] Total volumes were adjusted to 300 μl with TSG buffer (Marcus et al., J. Clin. Invest. 88:1690, 1991; Marcus et al., J. Clin. Invest. 99:1351, 1997). […] A mock-treated sample was also prepared in which the FSBA solution was replaced with water. After incubating at 37° for 90 min., the samples were centrifuged in a Centricon-10 filter unit (Amicon Corp.) for 1 hour at 5,500 rpm and buffer exchanged into PBS to remove unreacted material.

[7] = 670 μg/kg i.v. plus heparin and ASA, 24 hours after balloon injury
[8] = administered three hours following stroke induction
[9] = prior to, or up to 3 h following, stroke

B1: solCD39: recombinant soluble human CD39, untagged: 12 mature huIL2 residues, three amino acid linker, sol CD39 (SEQ ID NO:7) (protein)
chain: MALWIDRMQLLSCIALSLALVTNSAPTSSSTKKTQLTSSTQNKALPENVKYGIVLDAGSSHTSLYIYKWPAEKENDTGVVHQVEECRVKGPGISKFVQKVNEIGIYLTDCMERAREVIPRSQHQETPVYLGATAGMRLLRMESEELADRVLDVVERSLSNYPFDFQGARIITGQEEGAYGWITINYLLGKFSQKTRWFSIVPYETNNQETFGALDLGGASTQVTFVPQNQTIESPDNALQFRLYGKDYNVYTHSFLCYGKDQALWQKLAKDIQVASNEILRDPCFHPGYKKVVNVSDLYKTPCTKRFEMTLPFQQFEIQGIGNYQQCHQSILELFNTSYCPYSQCAFNGIFLPPLQGDFGAFSAFYFVMKFLNLTSEKVSQEKVTEMMKKFCAQPWEEIKTSYAGVKEKYLSEYCFSGTYILSLLLQGYHFTADSWEHIHFIGKIQGSDAGWTLGYMLNLTNMIPAEQPLSTPLSHST
Fibrin Deposition Ratio [1, 7]: 0.62 ± 0.10
Platelet Deposition Ratio [1, 7]: 1.25 ± 0.19
Bleeding Time ([1]; 30 minutes after administration): 7.00 ± 0.81
medial injury score ([1]; histology, scale of 1-4): 2.2
medial separation score ([1]; histology, scale of 1-4): 1.6
degree of hemorrhage ([1]; pig, in vivo): 2.5
tolerability ([1]; pigs, PTCA): well tolerated
composite injury score ([1]; total of three scores): 6.2
ex vivo platelet aggregation, collagen ([2]; 2.5 μg/ml collagen): attenuated
ex vivo platelet aggregation, ADP ([2]; 10 μM ADP): abrogated
ex vivo platelet aggregation, arachidonate ([2]; 0.1 mM sodium arachidonate): attenuated
elimination half-life of biological activity (ADPase activity) [3]: 5-7 days
t1/2α (distribution phase) [3]: 29 min
fibrin accumulation in the ipsilateral hemisphere ([4]; 8 mg/kg, Western blot): decreased
postischemic cerebral perfusion / blood flow ([4]; 24 hours after stroke induction): improved
infarction volume [4, 8]: reduced
postischemic blood flow [4, 8]: restored
intracerebral hemorrhage ([4]; following stroke, spectrophotometric): no significant increase
cerebral infarct volume ([4]; preoperative administration, aspirin 5 mg/kg): dose-dependent diminution
platelet accumulation in the ipsilateral cerebral hemisphere ([4]; pretreated with 8 mg/kg i.v.): inhibited
mortality [4, 9]: reduced
neurological deficit [4, 9]: reduced
infarct volume in CD39−/− mice ([4]; reconstituted CD39−/− mice): markedly diminished
survival at thirty minutes on post-ischemic lung [5]: survived
platelet aggregation induced by 10 μM ADP ([6]; 3.3 μg/ml solCD39, PRP from aspirin-ingesting donor): abruptly terminated
induction of platelet activation by ADP or collagen ([6]; ASA-treated PRP, 10 μM ADP (4.4 μg/ml) or collagen (22 μg/ml)): significantly inhibited
effect on collagen-induced aggregation with increasing quantity ([6]; PRP from aspirin-ingesting donor): dose dependent
platelet responsiveness to 5 μM ADP ([6]; PRP with or without 10 μM indomethacin, CM containing solCD39 from COS-1 and CHO cells): completely abrogating
platelet aggregation response to collagen ([6]; collagen 1 μg/ml, PRP): markedly reduced

Reference: patent publication US7264809B1, “Methods of inhibiting platelet activation and recruitment” (Immunex Corporation, priority 1998, dated 2007)
